Experimental data taken from PMC12212259, “Evaluation of AlphaFold modeling for elucidation of nanobody–peptide epitope interactions” (The Journal of Biological Chemistry, 2025).

Experiments:
127-tag peptide = biological target: T1, 127-tag peptide (Homo sapiens CXCR2 (synthetic peptide)); test: SPR; biotinylated Nb (1 uM) captured on a streptavidin (SA) chip to about 2000 RU; peptide as analyte, 50 ul/min, 60 s contact, 120 s dissociation; 1X PBS pH 7.4 plus 0.05% P20; Biacore T200; 1:1 kinetics binding model, local fittings; settings: both partners purified
T1 construct: numbers count on: the peptide; the printed residues Ser1', Phe2', Glu3', Phe5', Trp6', Lys7', Asp10' fit this; source: synthetic peptide
T1 chain: SFEDFWKGED

6E-WT peptide [1] = biological target: T2, 6E-WT peptide (Homo sapiens UBE2J1 (UBC6e; synthetic …, UniProt Q9Y385); test: as above; settings: both partners purified
T2 construct: Leu at position 9; numbers count on: the peptide; the printed E5 and L9 fit this; also called 6E-L9 (WT); 6E peptide; source: synthetic peptide
T2 chain: QADQEAKELARQIS

6E-WT peptide [2] = biological target: T2, 6E-WT peptide; test: flow cytometry on cells; competition: HEK293 cells stably expressing A2AR-Nb6E-ALFA with unlabeled variant 6E peptides (10–0.01 uM) and 10 nM FAM-6E-C14 for 30 m in 2% BSA in PBS; antifluorescein antibody-AF647; median fluorescence intensity; settings: one partner purified

B1: Nb127–biotin (VHH)
VHH: EVQLVESGGGLVQAGESLRLSCAASGSTFDFKVMGWYRQPPGKQREGVAAIRLSGNMHYAESVKGRFAISKANAKNTVYLQMNSLRPEDTAVYYCKVNIRGQDYWGQGTQVTVSS
notes: as the chain of m1; Sortagging probably removes the His6 tag; also called biotinylated Nb127; source: bacterial expression (pET26b, pelB), purified; labelled by sortagging (Sortase 5M), Ni-NTA and PD10
127-tag peptide
  Kd: 14 nM

B2: Nb6E-biotin (VHH)
VHH: QVQLQESGGGLVQPGGSLRLSCAASGFVFENSAMAWYRQAPGKERELIAVIGTTFIKLAESVKGRFTISRDNAKSTVYLQMNNLKPEDTAVYYCSKSGAYWGQGTQVTVSS
notes: as the chain of m13; Sortagging probably removes the His6 tag; also called biotinylated Nb6E; source: bacterial expression (pET26b, pelB), purified; labelled by sortagging (Sortase 5M), Ni-NTA and PD10
6E-WT peptide [1]
  binding result: binds

B3: A2AR-Nb6E-ALFA (VHH)
VHH: QVQLQESGGGLVQPGGSLRLSCAASGFVFENSAMAWYRQAPGKERELIAVIGTTFIKLAESVKGRFTISRDNAKSTVYLQMNNLKPEDTAVYYCSKSGAYWGQGTQVTVSS
notes: as the chain of m13 (Nb6E); also called cell surface protein fused with Nb6E; source: HEK293 cells, stably expressing, on cells
6E-WT peptide [2]
  binding result: binds
